Laboratory results reported in patent publication US20240277871A1 (University of Pennsylvania, published 2024).
Residue numbers refer to the chain shown, from its start. Names and notes keep the numbering of the source.

T1: mac251 gp120 (Immune Technology Corp.) (SIV mac251, UniProt P08810 20-527)
T1 construct: Coated on ELISA plates at 2 ug/mL; also called SIV mac251 gp120
T1 sequence: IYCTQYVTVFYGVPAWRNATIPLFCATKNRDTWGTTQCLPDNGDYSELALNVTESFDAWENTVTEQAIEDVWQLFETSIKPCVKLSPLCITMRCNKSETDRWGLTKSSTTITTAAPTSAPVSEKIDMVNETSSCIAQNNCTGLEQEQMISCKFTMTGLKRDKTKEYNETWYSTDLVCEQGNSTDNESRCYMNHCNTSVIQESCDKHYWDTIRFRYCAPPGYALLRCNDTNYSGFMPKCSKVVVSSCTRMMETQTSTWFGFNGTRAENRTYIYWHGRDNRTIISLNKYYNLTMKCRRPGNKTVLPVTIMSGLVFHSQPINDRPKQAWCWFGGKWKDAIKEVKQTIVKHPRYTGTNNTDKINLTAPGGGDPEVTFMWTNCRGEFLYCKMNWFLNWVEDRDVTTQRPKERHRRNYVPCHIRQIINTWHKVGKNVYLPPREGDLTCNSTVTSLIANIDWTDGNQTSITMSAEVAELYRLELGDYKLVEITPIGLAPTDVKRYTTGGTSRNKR

B1: rhesus macaque anti-SIV mac251 gp120 IgG-201 immunoadhesin (201IA) (Fc fusion)
chain: EVQLLESGPGLVKPSETLSLTCAVSGLSISSDFSWAWIRQTPGKALEYVGYIRGNTGDTYYNPSLKSRLTISKDTSKNQIYLNLSSVTAGDAAVYYCARDRVCDDDYGYYYTEVCFGLDSWGQGIVVTVSSGGGGSGGGGSGGGGSAELVMTQSPLSLSVAPGQTASISCRSSQSLDYANGNTYLSWFHQRPGQPPRRLIYQISNRDSGVPDRFSGSGAGTEFTLRISRMESDDVGIYYCGQGTTFPRTFGQGTKVEIKTCGGGSKPPTCPPCTSPELLGGPSVFLFPPKPKDTLMISRTPEVTCVVVDVSQEDPDVKFNWYVNGAEVHHAQTKPRETQYNSTYRVVSVLTVTHQDWLNGKEYTCKVSNKALPAPIQKTISKDKGQPREPQVYTLPPSREELTKNQVSLTCLVKGFYPSDIVVEWESSGQPENTYKTTPPVLDSDGSYFLYSKLTVDKSRWQQGNVFSCSVMHEALHNHYTQKSLSLSPGK
notes: also called 201 anti-SIV immunoadhesin; 201IA standard protein produced in-house
B2: 201IA(I253A) (Fc fusion)
chain: B1 chain with I297A
notes: No leader limits are stated; Expressed in HEK293 cells and purified on Protein A; also called I253A 201IA mutant

Target: T1, mac251 gp120 (Immune Technology Corp.)
Assay: ELISA, mac251 gp120 coated at 2 ug/mL, immunoadhesin at 50 ng/mL, detected with anti-human IgG-biotin and streptavidin-HRP

Binder	binding result
B1	binds
B2	binds
